According to PMC6265327:

Target: CMG assembled in vitro on roadblocked linear DNA from loaded MCM double hexamers and purified firing factors (yeast (strains based on W303)) (UniProt Q08032)
Assay: negative-stain EM with 2D classification; origin activation reconstituted with purified yeast proteins on bead-tethered linear DNA capped by covalent protein roadblocks; eluted by DNA digestion at a single site; particles counted in 2D class averages

“Pol epsilon used in the reconstituted origin activation (MCM train) reactions, P21951 1-2222; P24482 1-689; P27344 1-201; Q04603 1-196” gave a percent of isolated (not train-incorporated) CMG particles bound by Pol epsilon of 2%.
